According to article PMC8361696, “Regulation of aquaporin‐4 expression in the central nervous system investigated using M23‐AQP4 null mouse” (Glia, 2021):

Molecular target: the molecule itself
Assay: native gel or EMSA; blue native PAGE (3-9% gradient) of 50 ug spinal cord lysate in BN buffer (1% Triton X-100, 12 mM NaCl, 500 mM 6-aminohexanoic acid, 20 mM Bis-Tris pH 7.0), immunoblot with anti-AQP4

B1: M1-AQP4 (M23I) of M23-null mouse spinal cord (natural protein, mouse (endogenous in spinal cord), UniProt P55088 1-323, looked up)
chain: MSDGAAARRWGKCGHSCSRESIIVAFKGVWTQAFWKAVSAEFLATLIFVLLGVGSTINWGGSENPLPVDMVLISLCFGLSIATMVQCFGHISGGHINPAVTVAMVCTRKISIAKSVFYIIAQCLGAIIGAGILYLVTPPSVVGGLGVTTVHGNLTAGHGLLVELIITFQLVFTIFASCDSKRTDVTGSIALAIGFSVAIGHLFAINYTGASMNPARSFGPAVIMGNWANHWIYWVGPIMGAVLAGALYEYVFCPDVELKRRLKEAFSKAAQQTKGSYMEVEDNRSQVETEDLILKPGVVHVIDIDRGEEKKGKDSSGEVLSSV
notes: mouse aquaporin-4, M1-AQP4 isoform with the methionine codon at position 23 replaced by isoleucine, so no M23-AQP4 is made; The mouse model is described in de Bellis et al., 2020; also called M1M23I; AQP4 of M23-null mice; source: endogenous, M23-null (CRISPR/Cas9 M23I knock-in) mouse spinal cord, lysate in BN buffer (1% Triton X-100)
  stoichiometry N: 4
